Laboratory results reported in patent US11680267B2, “Co-regulatory sequences based on tetracycline and Cumate” (Shenzhen Eureka Biotechnology Co., Ltd., priority 2020, dated 2023).

B1: TREadvCuO: Tet-On (7xTetO of TREadv) and Cumate complex response element, CuO 52 bp behind the TATA box (SEQ ID NO: 30) (nucleic acid)
DNA: TCCCTATCAGTGATAGAGAACGTATGTCGAGTTTACTCCCTATCAGTGATAGAGAACGATGTCGAGTTTACTCCCTATCAGTGATAGAGAACGTATGTCGAGTTTACTCCCTATCAGTGATAGAGAACGTATGTCGAGTTTACTCCCTATCAGTGATAGAGAACGTATGTCGAGTTTATCCCTATCAGTGATAGAGAACGTATGTCGAGTTTACTCCCTATCAGTGATAGAGAACGTATGTCGAGGTAGGCGTGTACGGTGGGAGGCCTATATAAGCAACCGGTGTTTAGTGAACCGTCAGATCGCCTGGAGACGCCATCATAATACAAACAGACCAGATTGTCTGTTTGTT
modifications: TREadvCuO52 response element sequence
B2: TREadvCuO32: Tet-On (TREadv) and Cumate complex response element, CuO 32 bp behind the TATA box (SEQ ID NO: 29) (nucleic acid)
DNA: TCCCTATCAGTGATAGAGAACGTATGTCGAGTTTACTCCCTATCAGTGATAGAGAACGATGTCGAGTTTACTCCCTATCAGTGATAGAGAACGTATGTCGAGTTTACTCCCTATCAGTGATAGAGAACGTATGTCGAGTTTACTCCCTATCAGTGATAGAGAACGTATGTCGAGTTTATCCCTATCAGTGATAGAGAACGTATGTCGAGTTTACTCCCTATCAGTGATAGAGAACGTATGTCGAGGTAGGCGTGTACGGTGGGAGGCCTATATAAGCAACCGGTGTTTAGTGAACCGTCAGATCTACAAACAGACCAGATTGTCTGTTTGTT
modifications: TREadvCuO32 response element sequence
B3: TRE3GCuO30: Tet-On (TRE3G) and Cumate complex response element, CuO 30 bp behind the TATA box (SEQ ID NO: 28) (nucleic acid)
DNA: TCCCTATCAGTGATAGAGAACGTATGAAGAGTTTACTCCCTATCAGTGATAGAGAACGTATGCAGACTTTACTCCCTATCAGTGATAGAGAACGTATAAGGAGTTTACTCCCTATCAGTGATAGAGAACGTATGACCAGTTTACTCCCTATCAGTGATAGAGAACGTATCTACAGTTTACTCCCTATCAGTGATAGAGAACGTATATCCAGTTTACTCCCTATCAGTGATAGAGAACGTATTAGGCGTGTACGGTGGGCGCCTATAAAAGCAGAGCTCGTTTAGTGAACCGTCAGATACAAACAGACCAGATTGTCTGTTTGTT
modifications: TRE3GCuO30 response element sequence

How the values were obtained:
Format in all cases: cell-based
293T-rtTAadv-CymR cells = test: Luciferase assay, transient transfection, DOX and Cumate vs no inducer (Example 3), rtTAadv cells
Description: (§1) 293T cells were seeded at 1.5E+06 cells per 60 mm culture dish, and cultured in DMEM (Sigam, D6429) complete medium supplemented with 10% FBS (ExCell, 11H116) at 37° C. and 5% CO 2. After 24 hours of culture, transfection was carried out according to the PEI method. During transfection, 500 μL of transfection reagent which contained 5.5 ug of total plasmid was added to each 60 mm culture dish, and the mass ratio of total plasmid to PEI MAX (Polysciences, 24765-1) was 1:4. The transfection was carried out according to the PEI method, wherein the amount of total plasmid was 5.5 μg. The transfection was performed with plasmids 19BF074:18BF019 at a molar ratio of 10:1 to obtain 293T-rtTAadv-CymR cells; and the transfection was performed with plasmids 19BF075:18BF019 at a molar ratio of 10:1 to obtain 293T-rtTA3G-CymR cells. The plasmid and PEI MAX were mixed uniformly, and then put into a culture dish after standing for 15 minutes. 3 hours after transfection, the medium was changed to a complete DMEM medium, and the transfection operation was completed. After 24 hours of transfection, the cells were digested with trypsin and all seeded in a 100 mm culture dish (Corning, 430167), and 200 μg/ml of hygromycin (Sangon Biotech A600230-0001) drug screening was performed for at least three passages. After the growth of cells under the pressure of drug screening was consistent with that of the original 293T cells, the following experiments were performed.
(§2) In Tet-On inducible expression system, the induced transcription activity and the leaky transcription activity were comprehensively affected by the TetO operator linking sequence of the TRE response element and the minimal promoter sequence, as well as different mutants of the transactivator rtTA. In addition, the transport and stability of messenger ribonucleic acid may be enhanced by linking a spliceable intron sequence downstream of the 3′ end of the response element and upstream of the 5′ end of the regulated nucleic acid fragment of interest, but the induced transcription activity and leaky transcription activity of response element of the inducible expression system may also be affected. Based on this, the optimal design scheme of complex response element was determined in this Example based on the induced expression level and the ratio of induced/leaky expression level of Luciferase gene under the combination of the following conditions: (1) Tet-On and Cumate complex response elements TREadvCuO and TRE3GCuO designed based on the TREadv and TRE3G response element sequences; (2) whether an intron was linked; (3) being regulated by the transactivator rtTAadv or rtTA3G. A total of 8 design schemes were compared in this Example: TREadv (18BF232), TREadvCuO (18BF233), TRE3G (18BF234), TRE3GCuO (18BF235), TREadv-BGI (18BF240, wherein the response element was TREadv, and a human β-globulin intron was linked between the 3′ end of the response element and the 5′ end of the Luciferase gene), TREadvCuO-BGI (18BF241, wherein the response element was TREadvCuO, and a human β-globulin intron was linked between the 3′ end of the response element and the 5′ end of the Luciferase gene), TRE3G-BGI (18BF236, wherein the response element was TRE3G, and a human β-globulin intron was linked between the 3′ end of the response element and the 5′ end of the Luciferase gene) and TRE3GCuO-BGI (18BF237, wherein the response element was TRE3GCuO, and a human β-globulin intron was linked between the 3′ end of the response element and the 5′ end of the Luciferase gene). The promoter CMV-BGI (18BF229, wherein the promoter was CMV, and a human β-globulin intron was linked between the 3′ end of the CMV promoter and the 5′ end of the Luciferase gene) was used as a positive control. […]

293T-rtTA3G-CymR cells [1] = test: Luciferase assay, transient transfection, DOX and Cumate vs no inducer (Example 3), rtTA3G cells; conditions: 293T-rtTA3G-CymR cells
Description: as §1, §2

293T-rtTA3G-CymR cells [2] = test: Luciferase fluorescence intensity assay, transient transfection, both DOX and Cumate vs DOX alone (Example 2); conditions: for induced expression level: transient transfection, 24 hours after transfection
Excerpt: The experiment described in the present Example is to study and verify the effect of the position and copy number of the CuO operator in the Tet-On and Cumate complex response element on the induced expression level and non-induced leaky expression level of the complex response element, and to optimize and confirm the optimal position and copy number of the CuO operator. In the present Example, based on the 7×TetO sequence in the TRE3G response element and the minimal promoter sequence #1 (SEQ ID NO: 25), the response elements TRE3GCuO14 (10-317 bp in SEQ ID NO: 8), TRE3GCuO30 (SEQ ID NO: 28), TRE3GCuO50 (SEQ ID NO: 23) and TRE3GCuO100 (10-403 bp in SEQ ID NO: 10) were designed by linking a CuO operator sequence at 10 bp to 100 bp downstream of the TATA box (at 14 bp, 30 bp, 50 bp and 100 bp downstream of the TATA box, respectively), and a Luciferase reporter gene sequence was linked downstream of the 3′ end of the above response elements, to construct plasmids 18BF251, 18BF252, 18BF235 and 18BF253. Further, in order to study the effect of multiple copies of CuO operators, 2, 4 and 6 copies of CuO operator sequences were respectively inserted at 50 bp downstream of the TATA box, to design the response elements TRE3GCuO2x (10-411 bp in SEQ ID NO: 11), TRE3GCuO4x (10-527 bp in SEQ ID NO: 12) and TRE3GCuO6x (10-643 bp in SEQ ID NO: 13), and then a Luciferase reporter gene sequence was linked downstream of 3′ end of the above response elements to construct plasmids 18BF254, 18BF255 and 18BF256. In 293T-rtTA3G-CymR cells stably expressing rtTA3G and CymR genes, the above plasmids were transiently transfected, and the optimal position and number of CuO operator were validated by measuring the luciferase […] value of samples added with both DOX and Cumate inducers and that of the control added with the DOX inducer only. The specific experimental methods were as follows:
as §1
The 293T-rtTA3G-CymR cells were seeded in a 96-well plate (Corning 3916) at 2.5E+04 cells per well, and the medium was 100 microliters of DMEM complete medium. […]

293T-rtTA3G-CymR cells [3] = test: as above; conditions: for induced expression level as % of the induced expression level for TREadv response element: 1 ug/ml DOX and 200 ug/ml Cumate; for ratio of induced/leaky expression level based on Cumate inducible expression system, relative to that for the TREadv response element: DOX and Cumate vs DOX only
[4] = 1 ug/ml DOX and 200 ug/ml Cumate

Molecule	induced expression level as % of that of the corresponding TRE3G or TREadv single regulatory response element (293T-rtTAadv-CymR cells; DOX and Cumate) [%]	induced/leaky expression ratio (293T-rtTAadv-CymR cells; DOX and Cumate vs no inducer) [times]	induced expression level as % of that of the single regulatory response element (293T-rtTA3G-CymR cells [1]; DOX and Cumate) [%]	induced/leaky expression ratio (293T-rtTA3G-CymR cells [1]; DOX and Cumate vs no inducer) [times]	induced expression level (293T-rtTA3G-CymR cells [2]; [4])	induced expression level as % of the induced expression level for TREadv response element (293T-rtTA3G-CymR cells [3]) [%]	ratio of induced/leaky expression level based on Cumate inducible expression system, relative to that for the TREadv response element (293T-rtTA3G-CymR cells [3]) [times]	induced expression level as % of the induced expression level of TRE3G response element (293T-rtTA3G-CymR cells [2]; [4]) [%]	ratio of induced/leaky expression level based on Cumate inducible expression system, relative to that of TRE3G response element (293T-rtTA3G-CymR cells [2]; DOX and Cumate vs DOX only) [times]
B1	36.3	1345	40.3	1915	4.88E+06 RLU	53.4	3.23		
B2					3.26+06 RLU	37.8	4.97		
B3					3.06E+06 RLU			44.5	4.21
